We go through two proteins from PMC4344312.

Data set [1] can be described thus: total lysate immunoblot, anti-GFP. Conditions: glycan lost; control: SP-VSVG WT. On the technique in general: In western blotting, separated proteins are transferred to a membrane and probed.
Data set [2] is described as follows: cell surface ELISA, anti-hGLP-1R, unpermeabilised cells. To be noted: glycan lost; control: SP-VSVG WT, untreated. In general terms: In an ELISA, binding on a coated surface is turned into a signal by an enzyme label.
Data set [3] can be described thus: confocal immunofluorescence, GFP and surface anti-hGLP-1R. Conditions: glycan lost; control: SP-VSVG WT, untreated.

B1: human glucagon like peptide-1 receptor (hGLP-1R): N63, 82, 115L (protein)
parent chain: MAGAPGPLRLALLLLGMVGRAGPRPQGATVSLWETVQKWREYRRQCQRSLTEDPPPATDLFCNRTFDEYACWPDGEPGSFVNVSCPWYLPWASSVPQGHVYRFCTAEGLWLQKDNSSLPWRDLSECEESKRGERSSPEEQLLFLYIIYTVGYALSFSALVIASAILLGFRHLHCTRNYIHLNLFASFILRALSVFIKDAALKWMYSTAAQQHQWDGLLSYQDSLSCRLVFLLMQYCVAANYYWLLVEGVYLYTLLAFSVLSEQWIFRLYVSIGWGVPLLFVVPWGIVKYLYEDEGCWTRNSNMNYWLIIRLPILFAIGVNFLIFVRVICIVVSKLKANLMCKTDIKCRLAKSTLTLIPLLGTHEVIFAFVMDEHARGTLRFIKLFTELSFTSFQGLMVAILYCFVNNEVQLEFRKSWERWRLEHLHIQRDSSMKPLKCPTSSLSSGATAGSSMYTATCQASCS
On to B1, for which the expression_or_secretion entry in data set [1] is on record as “no change”. Also, the “localisation_or_trafficking, percent_of_wt” value in data set [2] is listed as “abolishes”. Also, the localisation_or_trafficking entry in data set [3] was “abolishes”.

B2: human glucagon like peptide-1 receptor (hGLP-1R): tunicamycin (protein)
parent chain: MAGAPGPLRLALLLLGMVGRAGPRPQGATVSLWETVQKWREYRRQCQRSLTEDPPPATDLFCNRTFDEYACWPDGEPGSFVNVSCPWYLPWASSVPQGHVYRFCTAEGLWLQKDNSSLPWRDLSECEESKRGERSSPEEQLLFLYIIYTVGYALSFSALVIASAILLGFRHLHCTRNYIHLNLFASFILRALSVFIKDAALKWMYSTAAQQHQWDGLLSYQDSLSCRLVFLLMQYCVAANYYWLLVEGVYLYTLLAFSVLSEQWIFRLYVSIGWGVPLLFVVPWGIVKYLYEDEGCWTRNSNMNYWLIIRLPILFAIGVNFLIFVRVICIVVSKLKANLMCKTDIKCRLAKSTLTLIPLLGTHEVIFAFVMDEHARGTLRFIKLFTELSFTSFQGLMVAILYCFVNNEVQLEFRKSWERWRLEHLHIQRDSSMKPLKCPTSSLSSGATAGSSMYTATCQASCS
In the case of B2, in data set [2], the “localisation_or_trafficking, percent_of_wt” value is “abolishes”. Further, in data set [3], the localisation_or_trafficking entry is recorded as “abolishes”.
